Laboratory results from US20240425603A1.
One block for each substance: values may come before it.

Assays:
[1] = target: human VEGFR2, over-expressed on HEK293 cells (human) (UniProt P35968); assay: flow cytometry, HEK cells over-expressing human VEGFR2
[2] = target: human VEGFR3, over-expressed on K562 cells (human) (UniProt P35916); assay: flow cytometry, K562 cells over-expressing human VEGFR3
[3] = target: Recombinant mouse VEGFR1-Fc (R&D Systems) (mouse) (UniProt P35969); assay: MSD ECL competition on plate-bound mouse VEGFR1-Fc; competitor biotin PlGF (2 nM)
Sequence of Recombinant mouse VEGFR1-Fc (R&D Systems) (mouse) (P35969 27-759 limits assumed): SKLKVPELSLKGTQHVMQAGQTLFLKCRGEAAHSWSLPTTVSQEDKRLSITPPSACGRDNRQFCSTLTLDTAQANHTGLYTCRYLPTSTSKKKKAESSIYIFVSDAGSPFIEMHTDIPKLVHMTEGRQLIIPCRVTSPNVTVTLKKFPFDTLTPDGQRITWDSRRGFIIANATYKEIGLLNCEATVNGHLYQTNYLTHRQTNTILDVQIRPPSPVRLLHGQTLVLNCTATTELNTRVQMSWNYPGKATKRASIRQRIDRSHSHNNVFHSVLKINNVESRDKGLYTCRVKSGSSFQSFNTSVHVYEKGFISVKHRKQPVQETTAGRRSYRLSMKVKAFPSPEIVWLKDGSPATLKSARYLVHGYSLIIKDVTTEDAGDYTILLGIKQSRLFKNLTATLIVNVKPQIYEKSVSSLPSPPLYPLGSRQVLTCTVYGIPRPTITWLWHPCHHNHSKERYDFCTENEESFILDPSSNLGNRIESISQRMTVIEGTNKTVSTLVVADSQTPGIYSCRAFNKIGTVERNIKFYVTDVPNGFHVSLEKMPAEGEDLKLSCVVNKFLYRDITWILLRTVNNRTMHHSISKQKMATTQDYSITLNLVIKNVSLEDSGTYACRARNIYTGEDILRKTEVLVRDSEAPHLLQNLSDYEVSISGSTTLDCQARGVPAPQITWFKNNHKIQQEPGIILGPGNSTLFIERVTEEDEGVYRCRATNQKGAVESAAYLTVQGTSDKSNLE

Sequence of human VEGFR2, over-expressed on HEK293 cells (human) (P35968 20-1356): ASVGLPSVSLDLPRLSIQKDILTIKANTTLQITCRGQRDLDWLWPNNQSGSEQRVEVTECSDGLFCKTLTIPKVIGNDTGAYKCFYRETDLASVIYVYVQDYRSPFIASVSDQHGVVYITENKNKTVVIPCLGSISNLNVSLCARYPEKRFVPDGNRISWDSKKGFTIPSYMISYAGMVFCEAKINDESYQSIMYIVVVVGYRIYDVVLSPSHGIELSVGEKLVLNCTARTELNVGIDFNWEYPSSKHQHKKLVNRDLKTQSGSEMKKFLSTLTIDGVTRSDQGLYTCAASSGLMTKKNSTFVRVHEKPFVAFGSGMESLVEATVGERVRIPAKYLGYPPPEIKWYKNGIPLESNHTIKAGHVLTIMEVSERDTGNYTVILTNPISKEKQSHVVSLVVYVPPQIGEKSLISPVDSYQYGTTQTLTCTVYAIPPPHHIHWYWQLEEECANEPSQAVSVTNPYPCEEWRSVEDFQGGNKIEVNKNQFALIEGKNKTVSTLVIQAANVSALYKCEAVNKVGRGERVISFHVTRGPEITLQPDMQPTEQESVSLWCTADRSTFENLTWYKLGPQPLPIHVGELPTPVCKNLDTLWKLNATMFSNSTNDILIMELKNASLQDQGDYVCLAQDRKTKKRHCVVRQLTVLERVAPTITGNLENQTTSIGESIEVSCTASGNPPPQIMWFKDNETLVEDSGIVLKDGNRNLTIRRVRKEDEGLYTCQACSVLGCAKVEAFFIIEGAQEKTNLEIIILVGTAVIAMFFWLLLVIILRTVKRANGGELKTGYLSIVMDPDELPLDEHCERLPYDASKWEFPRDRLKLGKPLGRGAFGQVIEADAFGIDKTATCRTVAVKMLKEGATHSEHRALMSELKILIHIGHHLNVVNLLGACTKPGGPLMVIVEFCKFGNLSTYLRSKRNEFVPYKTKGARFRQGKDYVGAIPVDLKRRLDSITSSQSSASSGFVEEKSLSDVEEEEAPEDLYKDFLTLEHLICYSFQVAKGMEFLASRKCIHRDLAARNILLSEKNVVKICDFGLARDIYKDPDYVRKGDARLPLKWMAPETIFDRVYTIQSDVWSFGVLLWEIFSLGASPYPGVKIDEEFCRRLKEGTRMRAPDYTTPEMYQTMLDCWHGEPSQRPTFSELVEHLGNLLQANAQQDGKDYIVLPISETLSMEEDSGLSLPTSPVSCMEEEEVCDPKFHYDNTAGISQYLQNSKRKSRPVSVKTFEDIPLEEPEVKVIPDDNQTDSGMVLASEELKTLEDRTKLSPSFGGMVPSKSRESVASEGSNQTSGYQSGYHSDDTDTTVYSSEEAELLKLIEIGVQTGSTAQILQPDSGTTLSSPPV
Sequence of human VEGFR3, over-expressed on K562 cells (human) (P35916 25-1363): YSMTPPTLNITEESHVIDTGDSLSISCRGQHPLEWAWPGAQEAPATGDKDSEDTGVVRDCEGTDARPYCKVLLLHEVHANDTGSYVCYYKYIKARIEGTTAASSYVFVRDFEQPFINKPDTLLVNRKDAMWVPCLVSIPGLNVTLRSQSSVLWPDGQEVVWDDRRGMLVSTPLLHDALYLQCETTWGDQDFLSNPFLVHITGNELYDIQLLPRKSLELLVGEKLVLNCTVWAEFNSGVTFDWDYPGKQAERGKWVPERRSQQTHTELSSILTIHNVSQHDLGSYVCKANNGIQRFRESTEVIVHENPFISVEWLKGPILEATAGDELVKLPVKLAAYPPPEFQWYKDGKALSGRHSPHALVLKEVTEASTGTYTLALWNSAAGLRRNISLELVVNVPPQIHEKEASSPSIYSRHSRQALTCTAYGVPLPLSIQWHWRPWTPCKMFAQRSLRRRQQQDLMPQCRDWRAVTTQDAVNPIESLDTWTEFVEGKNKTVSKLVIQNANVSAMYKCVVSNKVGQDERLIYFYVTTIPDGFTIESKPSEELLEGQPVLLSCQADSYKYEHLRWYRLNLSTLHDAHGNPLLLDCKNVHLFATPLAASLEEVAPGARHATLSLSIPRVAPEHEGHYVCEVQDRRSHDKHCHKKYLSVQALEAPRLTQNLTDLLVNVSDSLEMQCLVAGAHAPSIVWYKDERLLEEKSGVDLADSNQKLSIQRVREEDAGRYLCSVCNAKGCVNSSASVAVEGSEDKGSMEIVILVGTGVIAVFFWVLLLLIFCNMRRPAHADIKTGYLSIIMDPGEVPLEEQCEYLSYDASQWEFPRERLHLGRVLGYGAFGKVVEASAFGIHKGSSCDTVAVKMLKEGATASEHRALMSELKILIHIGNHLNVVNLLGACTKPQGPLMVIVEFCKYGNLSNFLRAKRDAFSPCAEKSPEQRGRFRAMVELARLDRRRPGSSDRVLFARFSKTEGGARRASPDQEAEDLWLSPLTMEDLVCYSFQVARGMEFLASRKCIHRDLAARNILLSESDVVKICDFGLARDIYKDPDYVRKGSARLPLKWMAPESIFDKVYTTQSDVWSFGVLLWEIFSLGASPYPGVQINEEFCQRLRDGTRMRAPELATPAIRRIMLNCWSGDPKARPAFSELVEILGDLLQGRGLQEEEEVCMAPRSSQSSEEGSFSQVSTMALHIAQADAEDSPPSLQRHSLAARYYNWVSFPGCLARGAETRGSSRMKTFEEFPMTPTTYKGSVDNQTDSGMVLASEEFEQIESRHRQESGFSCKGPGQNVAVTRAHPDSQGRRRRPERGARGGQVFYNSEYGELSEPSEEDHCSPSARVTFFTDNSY

Geomean over-expressing/Geomean parental (Fold Signal/Background) [1]: 28 fold
Substance: Goat anti-human VEGFR2 (R&D Systems Catalog #AF357) (antibody)

Geomean over-expressing/Geomean parental (Fold Signal/Background) [2]: 132 fold
Substance: Goat anti-human VEGFR3 (R&D Systems Catalog #AF349) (antibody)

IC50 [3]: 0.163 nM
Max % Inh. [3]: 100%
Substance: PlGF as used on mouse VEGFR1 (ligand)
